The record followed here is article PMC7641730, “Structural basis of DNA replication origin recognition by human Orc6 protein binding with DNA”.

One data set has as its target T1, HsOrc6-M (Homo sapiens, UniProt Q9Y5N6 95-187).
T1 sequence: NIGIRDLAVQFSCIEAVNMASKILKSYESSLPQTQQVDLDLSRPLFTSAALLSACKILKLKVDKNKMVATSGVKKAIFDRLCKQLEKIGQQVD
The experiment in a line: NMR (2D NOESY of DNA); smaller shifts than with DBD; NMR: 50 mM sodium phosphate pH 6.5, 100 mM NaCl, 2 mM DTT, 298 K; ITC: 50 mM sodium phosphate pH 6.5, 100 mM NaCl, 25 C; EMSA: 25 mM Tris pH 8.0, 60 mM KCl, 5 mM MgCl2, 0.4 mM EDTA, 0.4 mM EGTA, 0.1% NP-40, 10% glycerol, 0.12 mg/ml BSA, room temperature 30 min. Particulars: protein: recombinant; tags: none (N-terminal His-tag cleaved); blunt.

Another data set deals with T2, HsOrc6 full length (Homo sapiens, UniProt Q9Y5N6 1-252).
T2 sequence: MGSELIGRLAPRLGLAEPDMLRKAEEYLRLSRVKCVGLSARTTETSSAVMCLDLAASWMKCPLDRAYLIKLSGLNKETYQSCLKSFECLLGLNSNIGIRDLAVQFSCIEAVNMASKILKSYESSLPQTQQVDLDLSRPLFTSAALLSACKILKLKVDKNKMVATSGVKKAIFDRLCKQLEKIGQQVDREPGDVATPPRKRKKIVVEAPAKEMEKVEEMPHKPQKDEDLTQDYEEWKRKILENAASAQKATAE
The experiment in a line: NMR titration (1H,15N-HSQC); range over residues; NMR: 50 mM sodium phosphate pH 6.5, 100 mM NaCl, 2 mM DTT, 298 K; ITC: 50 mM sodium phosphate pH 6.5, 100 mM NaCl, 25 C; EMSA: 25 mM Tris pH 8.0, 60 mM KCl, 5 mM MgCl2, 0.4 mM EDTA, 0.4 mM EGTA, 0.1% NP-40, 10% glycerol, 0.12 mg/ml BSA, room temperature 30 min. The conditions noted are these: protein: recombinant; tags: none (N-terminal His-tag cleaved with 3C); blunt. (In general: Mobility shift assays separate free from complexed probe on a gel.)

A further data set has as its target T3, HsOrc6-DBD (Homo sapiens, UniProt Q9Y5N6 95-207).
T3 sequence: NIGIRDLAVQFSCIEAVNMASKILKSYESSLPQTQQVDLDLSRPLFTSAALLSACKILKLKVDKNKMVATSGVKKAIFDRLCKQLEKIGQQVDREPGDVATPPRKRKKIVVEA
The experiment in a line: NMR titration (1H,15N-HSQC); range over residues: K169 47.1±1.4, A170 57.7±1.1, R200 9.92±2.91, I203 11.3±1.5; NMR: 50 mM sodium phosphate pH 6.5, 100 mM NaCl, 2 mM DTT, 298 K; ITC: 50 mM sodium phosphate pH 6.5, 100 mM NaCl, 25 C; EMSA: 25 mM Tris pH 8.0, 60 mM KCl, 5 mM MgCl2, 0.4 mM EDTA, 0.4 mM EGTA, 0.1% NP-40, 10% glycerol, 0.12 mg/ml BSA, room temperature 30 min. The conditions noted are these: protein: recombinant; tags: none (N-terminal His-tag cleaved); blunt.

B1: 10-bp AT-rich DNA (dsDNA)
DNA 1: TTTAAAAAGT
DNA 2: ACTTTTTAAA
Turning to B1, the binding result in the data set with HsOrc6-M is reported as “binds”.

B2: 17-bp AT-rich DNA (dsDNA)
DNA 1: GGCCCTTTTTTTTCTAG
DNA 2: CTAGAAAAAAAAGGGCC
The term Kd denotes the equilibrium constant for the complex coming apart. With B2, the results for the Kd with HsOrc6 full length and in the data set with HsOrc6-DBD were 44.5 µM and 23.9 µM, respectively.
